Data taken from patent publication US7056679 (ANTYRA, dated 2006).

T1: DGI-2 polypeptide (UniProt Q15004 1-111, limits assumed)
T1 construct: Vector-derived residues or tag of pIVEX2.3 are not described for this construct; also called KIAA0101
T1 sequence (looked up): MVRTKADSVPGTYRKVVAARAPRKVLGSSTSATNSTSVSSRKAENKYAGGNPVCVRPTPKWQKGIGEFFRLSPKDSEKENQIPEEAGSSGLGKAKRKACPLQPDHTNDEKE


What was measured:
DGI-2 polypeptide [1] = molecular target: T1, DGI-2 polypeptide; experiment: phage ELISA, 405 nm; DGI-2 coated
Method: (§1) For analysis of individual target binders, colonies were picked and phage prepared as described above using helper phage, M13KO7. Ninety-six-well microtiter plates were coated with 500 ng/well of specific target protein, 500 ng/well lactate dehydrogenase (LDH) irrelevant or non-specific target, 500 ng/well of positive control antibody raised against ETAG, and negative control of non-fat milk powder-PBS 2% at 4° C. overnight. Plates were then blocked with 350 microliters/well PBS containing 2% non-fat milk for 1 hr at room temperature. One hundred microliters per well of phage from isolated clones were added and plates were incubated at room temperature for 2 hr after centrifuging samples for 20 minutes at 3500 rpm at 4° C. The phage solution was then removed, and the wells were washed three times with PBS at room temperature. Antibody raised against M13 conjugated to horseradish peroxidase (Pharmacia) was diluted 1:3000 in PBS-Tween and added to each well (100 µl/well). Incubation was for 1 hr at room temperature, followed by washing with PBS-(0.5%) Tween 3 times as described. Color was developed by addition of ABTS solution (100 µl/well; Boehringer, Indianapolis, Ind.). Plates were analyzed at 405 nm. A clone was considered "positive" if the $A405$ of the well was $\geq$2-fold over background.

[2] = molecular target: T2, antibody raised against ETAG; experiment: phage ELISA, 405 nm; anti-E-tag antibody coated
T2 construct: read-out of display; also called E-tag antibody; E tag antibody
Method: as §1

DGI-2 polypeptide [3] = molecular target: T1, DGI-2 polypeptide; experiment: phage ELISA, 405 nm; DGI-2 signal over LDH signal
Method: as §1

Row | Binder | DGI-2 (OD) (DGI-2 polypeptide [1]) | ETAG (OD) [2] [OD] | DGI-2/LDH (OD) (DGI-2 polypeptide [3]) [ratio]
1 | DGI-2-40F-3-B4 (not shown: phage gene III coat protein (pCANTAB5E)) peptide: LWLPCGLLVRPAQFYFYFSPLRHFLSSSVGSLSFPLSLLVAAAGAPVPYPDPLEPRP | 1 | 1.5 | 1.1
2 | FSSVLGLLDRRGVPVVVGEDAAAGAPVPYPDPLEPRP (not shown: phage gene III coat protein (pCANTAB5E)) [DGI-2-20F-3-C3] | 1.1 | 11.6 | 1.1
3 | LHRLGQSMGGTLDHLQGWGVAAAGAPVPYPDPLEPRP (not shown: phage gene III coat protein (pCANTAB5E)) [DGI-2-20R-4-E5] | 1.2 | 17.9 | 1.1
4 | RWSLPAYLCRFVSQASCNSRAAAGAPVPYPDPLEPRP (not shown: phage gene III coat protein (pCANTAB5E)) [DGI-2-20R-3-C12] | 1.6 | 14.6 | 1.6
5 | DGI-2-40F-3-D9 (not shown: phage gene III coat protein (pCANTAB5E)) peptide: RRTSADTDQLSRWEGAQAFSSLRSALSERLDSLRPGLPPSAAAGAPVPYPDPLEPRP | 1.1 | 15.8 | 1.4
6 | DGI-2-40F-3-D1 (not shown: phage gene III coat protein (pCANTAB5E)) peptide: MGQGFHYNRQPYMSHQCYAFTFSTPFLDGDRIPHGVSRGLAAAGAPVPYPDPLEPRP | 0.8 | 4.1 | 1
7 | DGI-2-40F-3-B95 (not shown: phage gene III coat protein (pCANTAB5E)) peptide: DYKTCVSQHVHPLFGEYFYHKVTHMSILSPTFRVTSLYGKAAAGAPVPYPDPLEPRP | 1 | 5.4 | 1.2
8 | LSVFRPGQFPHVGARGVSRTAAAGAPVPYPDPLEPRP (not shown: phage gene III coat protein (pCANTAB5E)) [DGI-2-20R-4-G32] | 1.4 | 11 | 1.2
9 | GMWIRPNGHMFLQGGYTARSAAAGAPVPYPDPLEPRP (not shown: phage gene III coat protein (pCANTAB5E)) [DGI-2-20R-4-G8] | 1.5 | 14.5 | 1.4
10 | DGI-2-40F-3-A8 (not shown: phage gene III coat protein (pCANTAB5E)) peptide: GQISLAGVAVCSSERMLLAFSSRVFLPGLKVPVTTSQRGSAAAGAPVPYPDPLEPRP | 0.8 | 1.5 | 1.1
11 | RCFQDGRMLALSPTYLIRRSVSPLVVGPLPTPAAAGAPVPYPDPLEPRP (not shown: phage gene III coat protein (pCANTAB5E)) [DGI-2-40F-3-A24] | 1.3 | 11.7 | 1.4
12 | DGI-2-40F-3-A1 (SEQ ID NO: 187) (not shown: phage gene III coat protein (pCANTAB5E)) peptide: QYFARGSFQFGLSHVLSAAAAFHLYVFCKRLSRGFGIKDDAAAGAPVPYPDPLEPRP | 0.8 | 2.4 | 1.1
13 | DGI-2-40F-3-B10 (not shown: phage gene III coat protein (pCANTAB5E)) peptide: MQAASTLSTYMGAIRMGYPILHWDRGGVQRVDPGLYRGRVAAAGAPVPYPDPLEPRP | 1.3 | 4.8 | 1.4
14 | WAGSTDLWQLWSLWVKPELRAAAGAPVPYPDPLEPRP (not shown: phage gene III coat protein (pCANTAB5E)) [DGI-2-20F-3-B7] | 1.6 | 16.4 | 1.6
15 | LTWGPQFGSLQVYSRHRGLPAAAGAPVPYPDPLEPRP (not shown: phage gene III coat protein (pCANTAB5E)) [DGI-2-20R-4-E4] | 1.6 | 18.1 | 1.3
16 | DGI-2-40F-3-B6 (not shown: phage gene III coat protein (pCANTAB5E)) peptide: QSNVWVLVGVIMQGVWYQRQHYCVYVMLLSDQVSVLLAVAAAAGAPVPYPDPLEPRP | 0.9 | 1.8 | 1.2
